Results: patent US20130224224A1 (Boehringer Ingelheim, published 2013)
Changes are numbered by the printed parent chain.

T1: human CX3CR1 (human, UniProt P49238 1-355)
T1 construct: overexpressed on CHO, BA/F3 or HEK293T cells; also called huCX3CR1; hCX3CR1
T1 sequence: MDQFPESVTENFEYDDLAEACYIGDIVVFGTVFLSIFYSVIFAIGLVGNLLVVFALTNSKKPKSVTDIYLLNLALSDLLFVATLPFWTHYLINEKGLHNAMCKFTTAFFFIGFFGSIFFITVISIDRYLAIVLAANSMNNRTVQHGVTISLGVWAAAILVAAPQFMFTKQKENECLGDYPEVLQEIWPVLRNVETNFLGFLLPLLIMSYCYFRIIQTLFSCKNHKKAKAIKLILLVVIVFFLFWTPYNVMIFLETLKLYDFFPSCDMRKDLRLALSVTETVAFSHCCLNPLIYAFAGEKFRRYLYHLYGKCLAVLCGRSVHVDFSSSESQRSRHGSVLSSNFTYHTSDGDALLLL

T2: cynomolgus CX3CR1 (cynomolgus, UniProt P49238 1-355 (human entry))
T2 construct: transiently expressed on HEK293T cells; also called cyCX3CR1; cyno CX3CR1
T2 chain: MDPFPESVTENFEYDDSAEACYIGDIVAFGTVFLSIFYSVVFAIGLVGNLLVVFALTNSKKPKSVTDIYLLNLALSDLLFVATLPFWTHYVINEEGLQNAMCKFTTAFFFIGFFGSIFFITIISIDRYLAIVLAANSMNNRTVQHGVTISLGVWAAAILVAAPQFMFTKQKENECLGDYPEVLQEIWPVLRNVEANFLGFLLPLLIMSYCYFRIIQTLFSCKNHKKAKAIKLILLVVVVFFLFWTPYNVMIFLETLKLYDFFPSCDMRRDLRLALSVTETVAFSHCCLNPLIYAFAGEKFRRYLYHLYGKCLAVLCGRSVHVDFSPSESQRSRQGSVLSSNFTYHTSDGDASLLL

B1: CX3CR1BIIPMP66B02 (VHH)
VHH: EVQLVESGGGSVQAGESLRLSCAASGSIFSSNAMAWYRQAPGKRRDLVAAINSVGVTKYADSVKGRFTISRDNAKNTVYLQMNSLKPEDTAVYYCTSDPRRGWDTRYWGQGTQVTVSS
modifications: alexa647 label where used as labeled competitor (Table 23)
notes: also called CX3CR1BII66B02; C100CX3CR1BII66B02; not shown: C-terminal c-myc and His6 tags
B2: CX3CR1BII00308 (VHH)
VHH: B1 VHH with E1D, S11L, A14P, E16G, A74S, K86R, Q113L
notes: also called CX3CR1BII308
B3: CX3CR1BII00307 (VHH)
VHH: B1 VHH with E1D, S11L, A14P, E16G, N32T, N52S, S53T, A74S, K86R, Q113L
notes: also called CX3CR1BII307
B4: CX3CR1BII00306 (VHH)
VHH: B1 VHH with E1D, S11L, A14P, E16G, N32T, N52S, A74S, K86R, Q113L
notes: also called CX3CR1BII306
B5: CX3CR1BIIPMP54B3 (VHH)
VHH: B1 VHH with R44Q, V56I
notes: also called 54B03; not shown: C-terminal c-myc and His6 tags
B6: CX3CR1BIIPMP61G3 (VHH)
VHH: B1 VHH with E1K, V12M, R44Q, V56I, N83M
notes: also called 61G03; not shown: C-terminal c-myc and His6 tags
B7: CX3CR1BIIPMP66G01 (VHH)
VHH: B1 VHH with V2M, R44Q, A50L, V56I, P99G
notes: also called CX3CR1BII66G01; not shown: C-terminal c-myc and His6 tags
B8: CX3CR1BIIPMP61F11 (VHH)
VHH: B1 VHH with E1K, A40P, R44Q, V56I, S70F
notes: not shown: C-terminal c-myc and His6 tags
B9: CX3CR1BIIPMP54G3 (VHH)
VHH: B1 VHH with R44Q, A50L, V56I, Q113L
notes: also called 54G03; not shown: C-terminal c-myc and His6 tags
B10: CX3CR1BIIPMP54D8 (VHH)
VHH: B1 VHH with E16G, R44Q, A50G, V56I, Q113L
notes: also called 54D08; CX3CR1BII54D08; not shown: C-terminal c-myc and His6 tags
B11: CX3CR1BIIPMP61G4 (VHH)
VHH: B1 VHH with E1K, E16G, R44Q, V56I, N83M
notes: also called 61G04; not shown: C-terminal c-myc and His6 tags
B12: CX3CR1BIIPMP61E2 (VHH)
VHH: B1 VHH with R44Q, A50G, V56I, T90M
notes: also called 61E02; not shown: C-terminal c-myc and His6 tags
B13: CX3CR1BIIPMP61B2 (VHH)
VHH: B1 VHH with G8R, E16A, R44Q, A50V, S53T, V56I, P99A
notes: also called 61B02; not shown: C-terminal c-myc and His6 tags

Each binder was assayed against T1, human CX3CR1 (assay: fractalkine competition FACS).

| Binder | % block [%] | IC50 [nM] |
| --- | --- | --- |
| B1 | 98 | 2.5 |
| B2 | 97 | 1.6 |
| B3 | 97 | 1.9 |
| B4 | 97 | 1.7 |

These binders were tested against T1, human CX3CR1 (assay: competition FACS, BA/F3-huCX3CR1; competitor alexa647-labeled 66B02).
Description: A competitive binding experiment was setup in order to determine whether the VHHs bind overlapping epitopes on CX3CR1. For this, the VHH 66B02 labeled with alexa647 was used in a competition FACS on the BA/F3 cells expressing huCX3CR1. Representative VHHs from the three functional families were used as competitors for the binding of the labeled 66B02.

| Binder | % block [%] | IC50 [nM] |
| --- | --- | --- |
| B1 | 100 | 1.5 |

Target: T1, human CX3CR1
Assay: fractalkine competition FACS
Remark: another data set of the same source

| Binder | % block [%] | IC50 [nM] |
| --- | --- | --- |
| B1 | 98 | 2.5 |

Target: T2, cynomolgus CX3CR1
Assay: A647-fractalkine competition FACS, HEK293T cynomolgus CX3CR1
Description: (§1) Periplasmic extracts were screened in a human CX3CR1/human Fractalkine FACS competition assay to assess the blocking capacity of the expressed VHHs. Human CX3CR1 was presented on CHO cells overexpressing CX3CR1. Both a setup using cells harvested from an actively growing culture and a setup using frozen cells was used. As a detection reagent labeled fractalkine was used (R&D Systems, Minneapolis, Minn., USA) labeled with alexa647 (A647-Fractalkine) at a degree of labeling of 1. To setup the assay, first a titration series of the labeled fractalkine was performed on the CHO-huCX3CR1 cells in order to determine the EC50 value for binding. Initially screening was performed at a higher concentration of fractalkine (3 nM) to increase the assay robustness. To increase the sensitivity of the screening to a maximum, the EC30 concentration (1 nM) was chosen for subsequent screening. In brief 50 μl of periplasmic extract was added to 6 nM labeled fractalkine (50 μ;) and 200 000 CHO-huCX3CR1 cells. After one hour incubation at 4 C, cells were washed three times before read out was performed on a FACS Array (Becton Dickinson). First a gate was set on the intact cells as determined from the scatter profile. Next, dead cells were gated out by their fluorescence profile from the PI stain (Sigma, St Louis, US). The fluorescence profile from the alexa647 label was determined for each sample and used for calculation of blocking capacity. As controls, conditions were taken along where there was no VHH present in the peri extract or a known irrelevant VHH and samples were included where excess cold fractalkine was included. For each sample the percentage block was determined using the control samples to determine the assay window.
(§2) For later identified VHHs, a human Fractalkine competition FACS was set up using human or cynomolgus CX3CR1 expressed in HEK293T cells. Both the human and the cynomolgus receptor was transiently transfected in HEK293T cells and transfections were matched by the binding of the labeled ligand, human fractalkine. The competition was evaluated using the EC30 concentration of fractalkine and as such obtained IC50 values are a good estimate of the Ki value, a measure for affinity (Table 22). The experiment was performed as described in Example 4.

| Binder | % block [%] | IC50 [nM] |
| --- | --- | --- |
| B5 | 95 | 470 |
| B1 | 97 | 19 |
| B6 | 89 | 300 |
| B7 | 100 | 120 |
| B8 | 95 | 160 |
| B9 | 89 | 470 |
| B10 | 91 | 72 |
| B11 | 100 | 200 |
| B12 | 96 | 46 |
| B13 | 92 | 45 |

Target: T1, human CX3CR1
Assay: fractalkine competition FACS
Remark: another data set of the same source

| Binder | % block [%] | IC50 [nM] |
| --- | --- | --- |
| B1 | 101 | 2.6 |

These binders were tested against T1, human CX3CR1 (assay: cell-based or functional assay).

| Binder | % block, fractalkine induced chemotaxis [%] | IC50, fractalkine induced chemotaxis [nM] |
| --- | --- | --- |
| B5 | 73 | 100 |
| B1 | 87 | 20 |
| B7 | 54 | 400 |
| B9 | 40 |  |
| B10 | 33 |  |

These binders were tested against T1, human CX3CR1 (assay: A647-fractalkine competition FACS, CHO-huCX3CR1).
Description: as §1
(§3) The blocking capacity towards the ligand fractalkine of the VHHs was evaluated in a human CX3CR1 competition FACS as outlined in Example 4. Either CHO-huCX3CR1 cells, BA/F3-huCX3CR1 cells or transiently transfected HEK293T cells were used. The amount of labeled ligand used in the different competition setups was also varied. The IC₅₀ values for VHHs blocking the interaction of human fractalkine to human CX3CR1 are depicted in Table 19.

| Binder | % block [%] | IC50 [nM] |
| --- | --- | --- |
| B5 | 108 | 25 |
| B9 | 107 | 56 |
| B10 | 101 | 15 |

Target: T1, human CX3CR1
Assay: cell-based or functional assay
Remark: another data set of the same source

| Binder | % block, ligand induced chemotaxis [%] | IC50, ligand induced chemotaxis [nM] |
| --- | --- | --- |
| B1 | 91 | 36 |
| B2 | 89 | 44 |
| B3 | 100 | 63 |
| B4 | 95 | 63 |

These binders were tested against T1, human CX3CR1 (assay: A647-fractalkine competition FACS, BA/F3-huCX3CR1).
Description: as §1, §3

| Binder | % block [%] | IC50 [nM] |
| --- | --- | --- |
| B5 | 99 | 33 |
| B9 | 98 | 98 |
| B10 | 99 | 38 |

These binders were tested against T1, human CX3CR1 (assay: A647-fractalkine competition FACS, HEK293T human CX3CR1).
Description: as §1, §2

| Binder | % block [%] | IC50 [nM] |
| --- | --- | --- |
| B5 | 92 | 67 |
| B1 | 102 | 2.5 |
| B6 | 96 | 60 |
| B7 | 99 | 14 |
| B8 | 96 | 46 |
| B9 | 89 | 270 |
| B10 | 95 | 84 |
| B11 | 96 | 42 |
| B12 | 98 | 82 |
| B13 | 94 | 10 |

These binders were tested against T1, human CX3CR1 (assay: A647-fractalkine competition FACS, HEK293-huCX3CR1).
Description: as §1, §3

| Binder | % block [%] | IC50 [nM] |
| --- | --- | --- |
| B5 | 92 | 67 |
| B1 | 102 | 2.5 |
| B6 | 96 | 60 |
| B7 | 99 | 14 |
| B8 | 96 | 46 |
| B9 | 89 | 270 |
| B10 | 95 | 84 |
| B11 | 96 | 42 |
| B12 | 98 | 82 |
| B13 | 94 | 10 |

Target: T2, cynomolgus CX3CR1
Assay: A647-fractalkine competition FACS, cynomolgus against human CX3CR1
Description: as §1, §2

| Binder | ratio (cynomolgus/human IC50) |
| --- | --- |
| B5 | 7.05 |
| B1 | 7.5 |
| B6 | 5.02 |
| B7 | 8.29 |
| B8 | 3.58 |
| B9 | 1.74 |
| B10 | 0.85 |
| B11 | 4.8 |
| B12 | 0.55 |
| B13 | 4.37 |

Each binder was assayed against T1, human CX3CR1 (assay: periplasmic extract, A647-fractalkine competition FACS, CHO-huCX3CR1).
Description: as §1

| Binder | % block [%] |
| --- | --- |
| B5 | 90.1 |
| B6 | 92.1 |
| B8 | 96.5 |
| B9 | 74.7 |
| B10 | 64.1 |
| B11 | 94.5 |
| B12 | 70.3 |
| B13 | 94.5 |
